# Data as given in US20080274993.
# Test system: DSCR1-FLAG (human Down syndrome critical region 1, C-terminal FLAG epitope)
# Sequence (chain, as listed by the source): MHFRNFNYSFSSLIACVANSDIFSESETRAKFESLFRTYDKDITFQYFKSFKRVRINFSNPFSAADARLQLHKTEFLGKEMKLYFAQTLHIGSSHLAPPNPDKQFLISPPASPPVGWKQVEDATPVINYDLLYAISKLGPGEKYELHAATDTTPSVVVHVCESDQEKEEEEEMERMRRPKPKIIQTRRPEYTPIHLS
substance,measurement,value
calcineurin A (CnA),NFATc1 phosphorylation status (Western blot of extracts of activated HUVECs),a shift from the dephosphorylated form of NFATc1 to the phosphorylated form in response to DSCR1
